{"source": "paper PMC6659731", "biological_target": "T1, BUD13-2xFLAG (UniProt Q9BRD0 1-619)", "T1 sequence": "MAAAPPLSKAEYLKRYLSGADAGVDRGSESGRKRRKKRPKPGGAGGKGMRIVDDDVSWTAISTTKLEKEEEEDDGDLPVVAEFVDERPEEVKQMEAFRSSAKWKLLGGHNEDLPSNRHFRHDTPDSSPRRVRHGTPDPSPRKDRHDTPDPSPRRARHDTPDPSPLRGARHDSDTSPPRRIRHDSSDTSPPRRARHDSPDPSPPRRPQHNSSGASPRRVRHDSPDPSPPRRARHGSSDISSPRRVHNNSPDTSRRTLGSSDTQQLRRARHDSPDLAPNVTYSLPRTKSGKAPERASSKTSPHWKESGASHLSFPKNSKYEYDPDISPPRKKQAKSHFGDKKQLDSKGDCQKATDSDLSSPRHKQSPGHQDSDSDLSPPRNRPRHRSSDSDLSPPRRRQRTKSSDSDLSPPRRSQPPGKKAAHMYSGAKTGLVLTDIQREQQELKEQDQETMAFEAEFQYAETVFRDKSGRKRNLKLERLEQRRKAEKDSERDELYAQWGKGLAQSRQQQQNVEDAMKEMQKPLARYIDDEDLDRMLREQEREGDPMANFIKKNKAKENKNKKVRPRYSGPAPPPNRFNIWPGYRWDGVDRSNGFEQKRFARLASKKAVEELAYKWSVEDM", "assay": "EMSA", "data": [{"binder": "UAAAGUGCUUAUAGUGCAGGUAGUGU (ssRNA)", "note": "[EMSA miR-20a locus RNA oligo]", "values": [{"measurement": "binding result", "value": "no binding"}]}]}
